One assay concerns the target T1, canine IL-13 (cIL-13) (Canis lupus familiaris, UniProt Q9N0W9).
T1 sequence (Q9N0W9 19-131): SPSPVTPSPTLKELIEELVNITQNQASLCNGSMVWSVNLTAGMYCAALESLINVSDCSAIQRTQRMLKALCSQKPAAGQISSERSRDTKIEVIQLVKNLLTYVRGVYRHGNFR
Briefly: Binding kinetics of cFc fusion proteins to canine IL-13 (OCTET HTX). The note with it: for ka / kdis: Table 4, cIL-13; for ka: association rate constant; for kdis: dissociation rate constant. On the procedure:
(§1) The binding constants for the cFc fusion proteins provided in Tables 3 and 4 below, were determined using OCTET® HTX. All kinetics measurements were performed by OCTET® HTX using SA® biosensors and DATA ACQUISITION® 12.0 software. 10 μg/mL of biotin-labeled antigen, either canine IL-4 (cIL-4) or canine IL-13 (cIL-13) were loaded onto the SAR biosensors for 120 seconds. Next, the biosensors were placed into 1×pH 7.0 TBS/Casein buffer for 60 seconds for the blocking phase. For the association phase, antigen loaded biosensors were placed into 2-fold serial dilutions from 1 μM down to 15.6 nM of the wild-type, the bispecific, or the FcRn-mutant receptor Fc-fusions that recognized the cIL-4 or cIL-13 antigen in 1×pH 7.0 TBS/Casein buffer for 30 seconds. The last well was buffer alone and that sensor was used for reference sensor subtraction. Finally, the biosensors were placed into 1×pH 7.0 TBS/Casein buffer for 120 seconds for the dissociation phase. The results were then analyzed using Data Analysis 12.0 software and the curves were fitted using a 1:1 binding model.

In the next assay the target is T2, canine IL-4 (cIL-4) (Canis lupus familiaris, UniProt O77762).
T2 sequence (O77762 25-132): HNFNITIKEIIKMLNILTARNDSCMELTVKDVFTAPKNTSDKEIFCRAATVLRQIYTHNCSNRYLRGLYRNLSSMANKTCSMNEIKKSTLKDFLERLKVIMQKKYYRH
Briefly: Binding kinetics of cFc fusion proteins to canine IL-4 (OCTET HTX). To be noted: for ka / kdis: Table 3, cIL-4, ND = Binding Not Detected; for ka: association rate constant; for kdis: dissociation rate constant; for Kd: approximate values, read-out: binding constant (KD) with cIL-4. As for the experimental part:
as §1

For assay [1], the system named is cIL-13 mediated STAT6 phosphorylation. The assay can be described thus: Inhibition of cIL-13 mediated STAT6 phosphorylation in DH82 cells (AlphaLISA p-STAT6). The class given is cell-based, canine. To be noted: DH82 cells. As for the experimental part: The ability of the cFc fusion proteins to block the signaling mediated by IL-4 and IL-13, as measured by inhibition of STAT-6 phosphorylation in DH82 cells, were determined as follows:
• 1. Actively growing DH82 cells: Merck Animal Health Lot: 628-011, 24Oct14 • 2. HBSS, 1×: Corning, Catalog 21-022-CM • 3. AlphaLISA p-STAT6 (Tyr641) Assay Kit: Perkin Elmer, Catalog ALSU-PST6-A10K • 4. Recombinant canine IL-4: R&D Systems, Catalog: 752-CL/CF • 5a. cFc fusion protein samples for IL-4 studies • (i) cIL4Rα-cFc • (ii) cIL4Rα-IL13Rα1 ZW1-cFc • (iii) cIL4Rα-IL13Rα2 ZW1-cFc • 5b. cFc fusion protein samples for IL-13 studies: • (i) CIL13Rα1-cFc • (ii) cIL13Rα2-cFc • (iii) cIL4R-IL13Rα1 ZW1-cFc • (iv) cIL4R-IL13Rα2 ZW1-cFc • 6. Perkin Elmer® Envision
• 1. Tissue culture plates were seeded with […] DH82 cells per well (40 μL with the density of 2.5×10^5 cells/mL) and incubated at 37° C. for 2 hours. • 2. The cFc fusion proteins were pre-diluted to 2000 nM (500 nM final concentration in the well) and then 3-fold serially diluted in Hank's Balanced Salt Solution (HBSS). The proteins were added by transferring 20 μL/well to the respective locations on the tissue culture plates containing DH82 cells. • 3. (a) Canine IL-4 was diluted to 10 ng/ml in HBSS (2.5 ng/ml in the well) and 20 μL was added to each well of the plates. The plates were incubated for 15 min at 37° C.; or alternatively • (b) Canine IL-13 was diluted to 20 ng/ml in HBSS (5 ng/ml in the well) and 20 μL was added to each well of the plates. The plates were incubated for 15 min at 37° C. • 4. The plates were removed from the incubator and 20 μL of 4× Lysis buffer from the AlphaLISA® p-STAT-6 Assay Kit was added to each well of the plate. The plate was agitated on a plate shaker with 350 rpm for 10 minutes at room temperature. • 5. The Acceptor Mix was prepared from the AlphaLISA® p-STAT6 Assay Kit and 15 μL per well was added to 30 μL of the cell lysate in 96-well ½ Area Plates. The plates were sealed, agitated for 2 minutes at 350 rpm, and then incubated for 1 hour at room temperature. • 6. The Donor Mix was prepared from the AlphaLISA® p-STAT6 Assay kit under subdued laboratory lighting and 15 μL per well was added to each plate. The plates were sealed, covered with foil, agitated for 2 minutes at 350 rpm, and then incubated for 1 hour at room temperature. • 7. The plates were read using the AlphaScreen settings on the Perkin Elmer® En Vison.
In general terms: In Alpha technology, singlet oxygen from a donor bead excites a nearby acceptor bead.

Positions count from the first letter of the chain named. Names may count otherwise.

B1: cIL-13Rα2-cFc-YD: cIL-13Rα2-cIgGB-Fc with L18Y/T22D half-life substitutions, SEQ ID NO: 13 (protein)
chain: SMLSNAEIKVNPPQDFEIVDPGYLGYLSLQWQPPLFPDNFKECTIEYELKYRNIDSENWKTIITKNLHYKDGFDLNKGIEAKINTLLPAQCTNGSEVRSSWAETTYWTSPQGNRETKIQDMDCVYYNWQYLVCSWKPGMGVHFDTNYQLFYWYEGLDHSAECTDYIKVNGKNMGCRFPYLESSDYKDFYICVNGSSESQPIRPSYFIFQLQNIVKPMPPDYLSLTVKNSEEINLKWNMPKGPIPAKCFIYEIEFTEDGTTWVTTTVENEIQITRTSNESQKLCFLVRSKVNIYCSDDGIWSEWSDEQCWKGDIWKETPKRENGRVPRPPDCPKCPAPEMLGGPSVFIFPPKPKDTLYIARDPEVTCVVVDLDPEDPEVQISWFVDGKQMQTAKTQPREEQFNGTYRVVSVLPIGHQDWLKGKQFTCKVNNKALPSPIERTISKARGQAHQPSVYVLPPSREELSKNTVSLTCLIKDFFPPDIDVEWQSNGQQEPESKYRTTPPQLDEDGSYFLYSKLSVDKSRWQRGDTFICAVMHEALHNHYTQESLSHSPGK
modifications: homodimer
In the assay with canine IL-13 (cIL-13), B1 had a ka of 1.15e+06 M⁻¹ s⁻¹ and a kdis of 5.07e-07 s⁻¹.

B2: cIL-13Rα2-cFc: homodimer of canine IL-13Rα2 ECD, IgGB hinge region and IgGB cFc fusion protein, SEQ ID NO: 7 (protein)
chain: B1 chain with Y357L, D361T
modifications: homodimer
In the assay with canine IL-13 (cIL-13), B2 yielded a ka of 1e+06 M⁻¹ s⁻¹ and a kdis of 7.45e-07 s⁻¹.

B3: cIL-13Rα2-cFc-YTE: cIL-13Rα2-cIgGB-Fc with L18Y/A20T/T22E half-life substitutions, SEQ ID NO: 10 (protein)
chain: B1 chain with A359T, D361E
modifications: homodimer
For B3, in the assay with canine IL-13 (cIL-13), the ka came to 1.17e+06 M⁻¹ s⁻¹ and the kdis amounted to 5.04e-07 s⁻¹.

B4: cIL-4Rα-cFc-H: cIL-4Rα-cIgGB-Fc with N202H half-life substitution, SEQ ID NO: 11 (protein)
chain: VKVLHEPSCFSDYISTSVCQWKMDHPTNCSAELRLSYQLDFMGSENHTCVPENREDSVCVCSMPIDDAVEADVYQLDLWAGQQLLWSGSFQPSKHVKPRTPGNLTVHPNISHTWLLMWTNPYPTENHLHSELTYMVNVSNDNDPEDFKVYNVTYMGPTLRLAASTLKSGASYSARVRAWAQTYNSTWSDWSPSTTWLNYYEPWEQHLPPKRENGRVPRPPDCPKCPAPEMLGGPSVFIFPPKPKDTLLIARTPEVTCVVVDLDPEDPEVQISWFVDGKQMQTAKTQPREEQFNGTYRVVSVLPIGHQDWLKGKQFTCKVNNKALPSPIERTISKARGQAHQPSVYVLPPSREELSKNTVSLTCLIKDFFPPDIDVEWQSNGQQEPESKYRTTPPQLDEDGSYFLYSKLSVDKSRWQRGDTFICAVMHEALHHHYTQESLSHSPGK
modifications: homodimer
One may read the Kd as the equilibrium constant for the complex coming apart. For the molecule B4, in the assay with canine IL-4 (cIL-4), the “loss in affinity for cIL-4 (KD times higher) relative to unmodified cIL-4Rα-cFc homodimer” value is given as “about 10 fold”, the ka came to 785000 M⁻¹ s⁻¹, the kdis was 9.88e-05 s⁻¹ and the Kd was found to be 100 pM.

B5: cIL-4Rα-cFc-YTE: cIL-4Rα-cIgGB-Fc with L18Y/A20T/T22E half-life substitutions, SEQ ID NO: 8 (protein)
chain: B4 chain with L248Y, A250T, T252E, H432N
modifications: homodimer
For B5, in the assay with canine IL-4 (cIL-4), the “loss in affinity for cIL-4 (KD times higher) relative to unmodified cIL-4Rα-cFc homodimer” value was approximately 100 fold, the ka is 830000 M⁻¹ s⁻¹, the kdis is 9.23e-06 s⁻¹ and the Kd stood at 10 pM.

B6: cIL-4Rα-cFc: homodimer of canine IL-4Rα ECD, IgGB hinge region and IgGB cFc fusion protein, SEQ ID NO: 5 (protein)
chain: B4 chain with H432N
modifications: homodimer
In the case of B6, in the assay with canine IL-4 (cIL-4), the ka was found to be 703000 M⁻¹ s⁻¹ and the kdis came out at 8.3e-07 s⁻¹.

B7: cIL-13Rα1-cFc-YTE: cIL-13Rα1-cIgGB-Fc with L18Y/A20T/T22E half-life substitutions, SEQ ID NO: 9 (protein)
chain: GGVAAPTETQPPVTNLSVSVENLCTVIWTWDPPEGASPNCTLRYFSHFDNKQDKKIAPETHRSKEVPLNERICLQVGSQCSTNESDNPSILVEKCTPPPEGDPESAVTELQCVWHNLSYMKCTWLPGRNTSPDTNYTLYYWHSSLGKILQCEDIYREGQHIGCSFALTNLKDSSFEQHSVQIVVKDNAGKIRPSFNIVPLTSHVKPDPPHIKRLFFQNGNLYVQWKNPQNFYSRCLSYQVEVNNSQTETNDIFYVEEAKCQNSEFEGNLEGTICFMVPGVLPDTLNTVRIRVRTNKLCYEDDKLWSNWSQAMSIGENTDPTPKRENGRVPRPPDCPKCPAPEMLGGPSVFIFPPKPKDTLYITREPEVTCVVVDLDPEDPEVQISWFVDGKQMQTAKTQPREEQFNGTYRVVSVLPIGHQDWLKGKQFTCKVNNKALPSPIERTISKARGQAHQPSVYVLPPSREELSKNTVSLTCLIKDFFPPDIDVEWQSNGQQEPESKYRTTPPQLDEDGSYFLYSKLSVDKSRWQRGDTFICAVMHEALHNHYTQESLSHSPGK
modifications: homodimer
In the case of B7, in the assay with canine IL-13 (cIL-13), the “decrease in the affinity for cIL-13 relative to unmodified cIL-13Rα1-cFc” value was “about 4 fold”, the ka was determined as 66500 M⁻¹ s⁻¹ and the kdis stood at 0.0011 s⁻¹. Further, the Kd with canine IL-13 (cIL-13) (approximate values, read-out: binding constant (KD) with cIL-13) turned out to be 20000 pM.

B8: cIL-13Rα1-cFc: homodimer of canine IL-13Rα1 ECD, IgGB hinge region and IgGB cFc fusion protein, SEQ ID NO: 6 (protein)
chain: B7 chain with Y361L, T363A, E365T
modifications: homodimer
In the assay with canine IL-13 (cIL-13), B8 showed a ka of 58000 M⁻¹ s⁻¹ and a kdis of 0.000312 s⁻¹. Further, the “concentration inhibiting 50% of the cIL-13 mediated STAT6 phosphorylation (in words)” value in assay [1] is “well above nanomolar concentrations”.

Source of the values: US20250325630A1, “HOMODIMER FUSION PROTEINS FOR TREATING ATOPIC DERMATITIS” (Intervet Inc., priority 2021, published 2025).
